Experimental data published in PMC8750329.

Experiments:
[1] = target: P. clarkii crustacyanin A2 (PcCRA2) (Procambarus clarkii); experiment: SEC + other: SDS-PAGE; fraction F2, 1 mg/mL, TSK-gel G3000SWxl, 20 mM sodium phosphate pH 7.0, 0.7 mL/min, calibrated with a protein standard mix; native mass about 43 kDa against a single 21 kDa band on SDS-PAGE
[2] = target: P. clarkii crustacyanin A2 (PcCRA2) (Procambarus clarkii); experiment: SEC + other: SDS-PAGE; fraction F1, 1 mg/mL, TSK-gel G3000SWxl, 20 mM sodium phosphate pH 7.0, 0.7 mL/min, calibrated with a protein standard mix; native mass about 170 kDa against a single 21 kDa band on SDS-PAGE

stoichiometry N [1]: 2 | stoichiometry N [2]: 8
Substance: P. clarkii crustacyanin A2 (PcCRA2) (natural protein)
